Experimental data as given in PMC2949298 (Nature structural & molecular biology, 2010).

Tests used:
Assay in all cases: SPR
[1] = biological target: soluble CD4 (domains 1 and 2 from human CD4) (human)
[2] = biological target: CAP210–sCD4 complex (core CAP210 gp120 with sCD4) (HIV-1 clade C CAP210.2.00.E8 gp120; …, strain)
[3] = biological target: UC1_(Full-length) (V1V2-containing UC1 gp120, HIV-2) with sCD4 (HIV-2 isolate UC1 gp120; human CD4, UniProt Q76638;PDB, strain)

B1: 21c Fab (Fab, V domains shown)
VH: QVQVVQSGAEVRKPGASVKVSCKVSGFTLTGLSIHWVRQAPGKGLEWMGGFGPEENEIIYAQKFQGRVSMTEDTSTNTAYMELSSLRSEDTAVYYCATGGNYYNLWTGYYPLAYWGQGTLVTVSS
VL: QSVLTQPPSVSAAPGQKVTISCSGSSSNIGKNYVSWYQQLPGAAPKLLIFDDTQRPSGIPDRFSGSKSGTSATLAITGLQTGDEADYYCGTWDSSLSTGQLFGGGTKLTVL
B1 was tested, and the Kd [1] was > 100 µM, the Kd [2] was 1600 nM and the binding result [3] was “binds”.
